This note sets out measurements from article PMC4392886 (Innate immunity, 2014).

The target of the experiment is recombinant human TLR2 ectodomain (human, UniProt O60603 19-590, N-linked glycans, predominantly of the high-mannose type). The experiment can be described thus: native gel or EMSA.

No end group written: not given here.

Chain of recombinant human TLR2 ectodomain (O60603 19-590): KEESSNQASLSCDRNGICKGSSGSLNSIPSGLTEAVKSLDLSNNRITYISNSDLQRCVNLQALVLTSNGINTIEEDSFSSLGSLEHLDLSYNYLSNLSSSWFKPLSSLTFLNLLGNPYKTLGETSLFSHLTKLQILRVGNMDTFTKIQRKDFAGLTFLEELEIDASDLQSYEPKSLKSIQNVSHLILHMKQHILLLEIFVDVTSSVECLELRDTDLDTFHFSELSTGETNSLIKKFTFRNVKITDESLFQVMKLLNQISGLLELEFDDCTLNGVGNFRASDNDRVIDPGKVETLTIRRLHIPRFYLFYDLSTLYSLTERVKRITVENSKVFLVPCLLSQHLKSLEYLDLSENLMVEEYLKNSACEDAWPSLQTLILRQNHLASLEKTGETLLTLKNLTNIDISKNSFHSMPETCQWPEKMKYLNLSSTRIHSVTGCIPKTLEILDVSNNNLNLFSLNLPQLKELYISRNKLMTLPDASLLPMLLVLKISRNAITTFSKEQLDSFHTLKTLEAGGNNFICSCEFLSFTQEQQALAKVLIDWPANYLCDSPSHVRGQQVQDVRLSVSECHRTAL

B1: S-(2,3-bis-palmitoyloxypropyl)-Cys-Gly-Asp-Pro-Lys-His-Pro-Lys-Ser-Phe-K-Aca-Aca-Fluorescein (peptide)
peptide: C(2,3‑bis‑palmitoyloxypropyl)GDPKHPKSFK-{Aca-Aca-Fluorescein}
With B1, the binding result is on record as “binds”.
